Data set [1] addresses T1, Clr4 WT (Schizosaccharomyces pombe, UniProt O60016).
T1 construct: The plasmid encoding for SUMO- and His-tagged full-length Clr4 WT and different mutant variants were transformed into E. coli; SUMO; His; made in house; host or cells: E. coli BL21-CodonPlus (DE3)
Briefly: AdoMet dependence of Clr4 WT activity (MALDI-TOF). The class given is biochemical. The conditions noted are these: 30 °C, Hill model. As for the experimental part:
(§1) To investigate the Clr4 AdoMet dependency and the role that could be played by ARL automethylation in sensing AdoMet concentrations, steady-state kinetics were conducted at variable AdoMet concentrations. […] Afterwards, the methylation products were detected by MALDI-TOF mass spectrometry (Supplementary Figure S5). The Clr4 reaction rates were derived from the analysis of relative peak intensities of the different methylated histone peptides (Figure 6A,B).
(§2) Figure 6 AdoMet dependence of the activity of Clr4 WT and the K455R/K472R mutant. Fractions of methylated products observed with increasing AdoMet concentrations (2–50 µM) for Clr4 WT (A) or the automethylation-deficient K455R/K472R mutant (B). Data were obtained from the analysis of corresponding relative peak intensities measured by MALDI-TOF mass spectrometry in two to four independent experiments (see Supplementary Figure S5).
The reactions were halted by the addition of 0.1% trifluoroacetic acid (TFA). […] After that, the dried spots on the anchor plate were analyzed using an Autoflex Speed MALDI-TOF mass spectrometer (Bruker-Daltonics, Billerica, MA, USA). […] The collected spectra were then analyzed with Flex analysis software (Bruker Daltonics). The relative methylation levels were determined by using the corresponding peak intensities of the substrate peptide in different methylation states.

The target of data set [2] is Clr4 K455R/K472R (Schizosaccharomyces pombe, UniProt O60016, K455R/K472R). Briefly: AdoMet dependence of Clr4 K455R/K472R activity (MALDI-TOF). The class given is biochemical. The method, then:
as §1, §2
(§3) The reactions were halted by the addition of 0.1% trifluoroacetic acid (TFA). All the samples were cleaned using C18 tips (Agilent Technologies, Santa Clara, CA, USA). The eluted samples were spotted on an anchor chip plate and allowed to dry completely. Later, 1 μL of HCCA matrix (0.7 mg/mL α-cyano-4 hydroxycinnamic acid dissolved in 85% acetonitrile, 0.1% TFA, 1 mM ammonium dihydrogen phosphate) was added to dried sample and allowed to dry again. After that, the dried spots on the anchor plate were analyzed using an Autoflex Speed MALDI-TOF mass spectrometer (Bruker-Daltonics, Billerica, MA, USA). The mass spectra were collected using the Flex control software (Bruker-Daltonics). For calibration, the peptide calibration standard (Bruker-Daltonics) with peptides ranging from 700 to 3200 Da was used. The collected spectra were then analyzed with Flex analysis software (Bruker Daltonics). The relative methylation levels were determined by using the corresponding peak intensities of the substrate peptide in different methylation states.

The test system of data set [3] is C[S+](CC[C@H](N)C(=O)[O-])C[C@H]1O[C@@H](n2cnc3c(N)ncnc32)[C@H](O)[C@@H]1O. Described as above. It counts as biochemical, Schizosaccharomyces pombe. The conditions noted are these: other: Clr4 K455R/K472R 0.9 µM, H3K9me1 peptide 4.58 µM, AdoMet 0–50 µM, 50 mM Tris pH 8.8, 3 h, 30 °C, Michaelis–Menten model, mean ± SEM, two to four independent experiments. The method, then: as §1, §2, §3

Data set [4] has as its system unmodified H3K9 peptide (H3K9me0). Briefly: Radioactive in vitro methyltransferase activity of Clr4 variants on H3K9 peptide. The class given is biochemical. Conditions: for change in methyltransferase activity on the H3K9 peptide, in words: compared to WT (triple mutant: compared to A454R), low AdoMet (0.76 µM); for Methyltransferase activity (relative value): relative to WT, mean ± S.D., two to four independent experiments, 0.45 µM Clr4, 2.4 µM H3K9me0 (1–19) peptide, 0.76 µM [methyl-3H]-AdoMet, 50 mM Tris pH 8.8, 3 h, 30 °C. An excerpt: (§4) After the methylation reactions, the samples were separated by gel electrophoresis and the transfer of the radioactively labeled methyl groups from the cofactor to the respective target lysine residues in Clr4 and in the H3K9 peptide was visualized by autoradiography, analyzed quantitatively and normalized to WT (Figure 2 and Supplementary Table S1).
(§5) Figure 2 Methyltransferase activity and automethylation of different engineered Clr4 variants compared to wild type (WT). […] The red asterisks indicate the Clr4 automethylation signal. […] The mean values are indicated by the bars and the individual data points as circles. […] The p-values of the differences in automethylation and methyltransferase activities between WT and mutants are listed in Supplementary Table S1.
(§6) The reactions were stopped by the addition of Tricine-SDS-PAGE loading buffer followed by heating to 95 °C for 5 min. […] The signals of the transferred radioactively labeled methyl groups were detected by autoradiography using a Hyperfilm^TM high-performance autoradiography film (Merck), which was placed on the dried gels at −80 °C in the dark. Films were developed with an Optimax Typ TR machine after different exposure times. For quantification, the signal intensities were measured with ImageJ (https://imagej.nih.gov/ij/) and analyzed with Microsoft Excel (Microsoft, Redmond, WA, USA).

The subject of data set [5] is Clr4. Briefly: Radioactive in vitro automethylation of Clr4 WT and ARL variants (autoradiography). It counts as biochemical, Schizosaccharomyces pombe. Conditions: for change in automethylation, in words: compared to WT (triple mutant: compared to A454R); for Automethylation level (relative value): relative to WT, mean ± S.D., two to four independent experiments, results with and without peptide combined, 0.45 µM Clr4, 2.4 µM H3K9me0 peptide, 0.76 µM [methyl-3H]-AdoMet, 50 mM Tris pH 8.8, 3 h, 30 °C; for decrease in automethylation compared to the WT enzyme (fold): autoradiography, normalized to WT.
Description: as §4, §5, §6

The target of data set [6] is T1, Clr4 WT. Briefly: MALDI-TOF detection of Clr4 WT methylation of histone peptides. Conditions: 4.5 µM peptide, 1 mM unlabeled AdoMet. It counts as biochemical. The method, then: as §3
Data set [7] concerns the target T2, Clr4 A454R (Schizosaccharomyces pombe, UniProt O60016, A454R).
T2 construct: The plasmid encoding for SUMO- and His-tagged full-length Clr4 WT and different mutant variants were transformed into E. coli; SUMO; His; made in house; host or cells: E. coli BL21-CodonPlus (DE3)
The class given is biochemical.
Description: A reaction of WT enzyme incubated with 400 µM peptide was loaded on each gel as reference for the quantitative analysis.
The methylation reactions were performed using a peptide concentration range (25–400 µM) in methylation buffer (50 mM Tris pH 8.8, 10 mM MgCl2, 20 mM KCl, 1 mM DTT) supplemented with 0.76 µM radioactively labeled AdoMet (PerkinElmer) and 0.3 µM Clr4 WT or variants for 1 h at 30 °C.

In data set [8] the target is Clr4 A454R mutant, SUMO- and His-tagged full-length (S. pombe, UniProt O60016 1-490, A454R). Briefly: cell-based or functional assay.
For data set [9], the target named is Clr4 wild type, SUMO- and His-tagged full-length (S. pombe, UniProt O60016 1-490). Briefly: cell-based or functional assay.

Usually Km stands for the concentration of substrate that gives half-maximal velocity.

T1 sequence (O60016 whole entry): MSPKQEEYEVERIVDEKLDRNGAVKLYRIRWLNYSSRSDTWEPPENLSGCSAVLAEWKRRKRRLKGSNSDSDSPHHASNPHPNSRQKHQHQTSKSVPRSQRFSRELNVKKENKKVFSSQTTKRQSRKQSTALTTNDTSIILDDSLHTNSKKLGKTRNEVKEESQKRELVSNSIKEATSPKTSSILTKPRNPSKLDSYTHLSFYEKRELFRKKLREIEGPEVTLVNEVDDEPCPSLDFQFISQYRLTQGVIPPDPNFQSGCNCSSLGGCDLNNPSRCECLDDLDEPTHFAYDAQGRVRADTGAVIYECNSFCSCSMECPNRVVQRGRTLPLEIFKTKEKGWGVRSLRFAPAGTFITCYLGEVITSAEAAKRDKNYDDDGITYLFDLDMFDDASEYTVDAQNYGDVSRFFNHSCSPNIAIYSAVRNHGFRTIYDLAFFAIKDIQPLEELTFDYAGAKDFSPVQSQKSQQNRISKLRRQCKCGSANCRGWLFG
Sequence of Clr4 K455R/K472R (O60016 whole entry K455R/K472R): as the sequence (O60016 whole entry) above, with K455R, K472R counted along it
T2 sequence (O60016 whole entry A454R): as the sequence (O60016 whole entry) above, with A454R counted along it

Take `C[S+](CC[C@H](N)C(=O)[O-])C[C@H]1O[C@@H](n2cnc3c(N)ncnc32)[C@H](O)[C@@H]1O` (stereo partly drawn) [AdoMet, S-adenosyl-L-methionine]: the “N (Hill coefficient), Clr4 WT” value in data set [1] (Clr4 WT 0.9 µM, H3K9me1 peptide 4.58 µM, AdoMet 0–50 µM, pH 8.8, 3 h, mean ± SEM) is 1.87 ± 0.19. For the same molecule, the “n, Clr4 K455R/K472R” value in data set [2] (mutant data were fitted to the Michaelis–Menten model corresponding to an n-value of 1 (not a free parameter)) turned out to be 1. Further, the “rel. vmax (AdoMet), Clr4 K455R/K472R” value in data set [2] (relative to WT activity, Clr4 K455R/K472R 0.9 µM, H3K9me1 peptide 4.58 µM, AdoMet 0–50 µM, pH 8.8, 3 h, 30 °C, Michaelis–Menten model, mean ± SEM) stood at 0.71 ± 0.08.

In the case of “Clr4 K455R/K472R (Schizosaccharomyces pombe 972h-; K455R/K472R)”, the Km in data set [3] was 13.6 ± 1.0 µM.

With “D456S/F457T: Clr4 variant, D456 and F457 were mutated to S and T”, in data set [4], the “change in methyltransferase activity on the H3K9 peptide, in words” value (“change in methyltransferase activity” for short) is “no significant change in automethylation and methyltransferase activity”; the “Methyltransferase activity (relative value)” value stood at 1.2 ± 0.14. In data set [5], the “change in automethylation, in words” value is listed as “no significant change in automethylation” and the “Automethylation level (relative value)” value came out at 1.2 ± 0.33.

In the case of “K455R/K472R: ARL automethylation-deficient Clr4 mutant”, in [4], the “change in methyltransferase activity” value is on record as “not accompanied by a corresponding reduction in activity” and the “Methyltransferase activity (relative value)” value came to 0.91 ± 0.08. Further, the “reaction rate response towards increasing AdoMet concentration, K455R/K472R” value in [2] (AdoMet 2–50 µM, H3K9me1 peptide, 3 h, 30 °C, Michaelis–Menten model) is recorded as “regular hyperbolic shape”. Also, in [5], the “decrease in automethylation compared to the WT enzyme (fold)” value is approximately 2.2 fold and the “Automethylation level (relative value)” value is 0.46 ± 0.15.

In the case of “K455M: Clr4 variant in which the target lysine in the ARL, K455, was mutated to M”, in [4] (less active than WT, p-value = 0.0004), the “reduction in H3K9 peptide methyltransferase activity” value is on record as 30%. In data set [4], the “Methyltransferase activity (relative value)” value is listed as 0.7 ± 0.09. Moreover, in data set [5], the “change in automethylation, in words” value was “strong reduction in automethylation (about four-fold” and the “Automethylation level (relative value)” value was 0.23 ± 0.05.

On to `C[C@H](N)C(=O)N[C@@H](CCCNC(=N)N)C(=O)N[C@H](C(=O)N[C@@H](CCCCN)C(=O)N[C@@H](CCC(N)=O)C(=O)N[C@H](C(=O)N[C@@H](C)C(=O)N[C@@H](CCCNC(=N)N)C(=O)N[C@@H](CCCCN)C(=O)N[C@@H](CO)C(=O)N[C@H](C(=O)NCC(=O)NCC(=O)N[C@@H](CCCCN)C(=O)N[C@@H](C)C(=O)N1CCC[C@H]1C(=O)N[C@@H](CCCNC(=N)N)C(=O)N[C@@H](CCCCN)C(=O)N[C@@H](CCC(N)=O)C(N)=O)[C@@H](C)O)[C@@H](C)O)[C@@H](C)O` [H3K9me0], for which, in [6], the “H3K9me1 product fraction after overnight incubation” value is 12%, the “H3K9me2 product fraction after overnight incubation” value was 42% and the “total methylation after overnight incubation” value turned out to be 54%.

As to “K455R: automethylation-deficient Clr4 mutant”, in data set [4], the “change in methyltransferase activity” value is recorded as “not accompanied by a corresponding reduction in activity” and the “Methyltransferase activity (relative value)” value was 1.1 ± 0.008. In data set [5], the “decrease in automethylation compared to the WT enzyme (fold)” value is “about 1.4 fold” and the “Automethylation level (relative value)” value is given as 0.7 ± 0.08.

Regarding “A454R: Clr4 variant, A454 in the ARL was mutated to R”, in data set [4], the “change in methyltransferase activity” value is recorded as “approximately two-fold higher methyltransferase activity” and the “Methyltransferase activity (relative value)” value came out at 1.9 ± 0.33. Moreover, the “activity at low concentrations of both histone peptides” value in [7] (A454R compared to WT, H3K9me0 and H3K9me1, Figure S4) was “higher activity compared to the WT”. For the same molecule, the “Vmax difference A454R vs WT” value in data set [7] (histone peptides, AdoMet 0.76 µM) is on record as “minor”. For the same molecule, the “stronger automethylation compared to Clr4 WT (fold)” value in data set [5] (p-value = 0.012) is listed as “about 3.4 fold”. Also, the “Automethylation level (relative value)” value in data set [5] was 3.4 ± 1.05.

With “Clr4 WT: S. pombe H3K9 protein lysine methyltransferase Clr4, wild type”, in [1] (AdoMet 2–50 µM, H3K9me1 peptide, 3 h), the “reaction rate response towards increasing AdoMet concentration, Clr4 WT” value is recorded as “sigmoidal response”.

B1: A454R/D456S/F457T: Clr4 triple mutant, all of the exchanges combined in one mutant (protein, UniProt O60016 1-490, looked up, variant A454R D456S F457T)
Histone-lysine …: MSPKQEEYEVERIVDEKLDRNGAVKLYRIRWLNYSSRSDTWEPPENLSGCSAVLAEWKRRKRRLKGSNSDSDSPHHASNPHPNSRQKHQHQTSKSVPRSQRFSRELNVKKENKKVFSSQTTKRQSRKQSTALTTNDTSIILDDSLHTNSKKLGKTRNEVKEESQKRELVSNSIKEATSPKTSSILTKPRNPSKLDSYTHLSFYEKRELFRKKLREIEGPEVTLVNEVDDEPCPSLDFQFISQYRLTQGVIPPDPNFQSGCNCSSLGGCDLNNPSRCECLDDLDEPTHFAYDAQGRVRADTGAVIYECNSFCSCSMECPNRVVQRGRTLPLEIFKTKEKGWGVRSLRFAPAGTFITCYLGEVITSAEAAKRDKNYDDDGITYLFDLDMFDDASEYTVDAQNYGDVSRFFNHSCSPNIAIYSAVRNHGFRTIYDLAFFAIKDIQPLEELTFDYAGRKSTSPVQSQKSQQNRISKLRRQCKCGSANCRGWLFG
As to B1, in [4], the “change in methyltransferase activity” value was “no significant difference from the A454R single mutant” and the “Methyltransferase activity (relative value)” value came to 1.7 ± 0.02. For the same molecule, in data set [5], the “change in automethylation, in words” value is “no significant difference from the A454R single mutant” and the “Automethylation level (relative value)” value is listed as 2.7 ± 0.66.

B2: H3K9me1-biotin (1–18) peptide (peptide, UniProt P68431 2-19, looked up)
peptide: ARTKQTARKSTGGKAPRK
modifications: monomethyl-lysine at 9; biotin (end not stated)
Turning to B2, the “Km of peptide methylation (steady-state kinetics, Michaelis–Menten fit, 0.76 µM AdoMet)” value was 5.5 µM in data set [8] and 16.4 µM in data set [9].

The record behind these values is paper PMC7700585, “Mechanistic Insights into the Allosteric Regulation of the Clr4 Protein Lysine Methyltransferase by Autoinhibition and Automethylation” (International Journal of Molecular Sciences, 2020).
